In doi:10.1101/2020.09.29.317909 one finds stoichiometry N data, which are given here for 1 substance.

The target in the assay is MtMce4A_(39-140) (Mycobacterium tuberculosis). Description: SEC-MALS. For orientation: Size exclusion chromatography separates by hydrodynamic size, large species first.

As usually defined, the stoichiometry N is the number of molecules, sites or subunits per partner or assembly. For the substance MtMce4A_(39-140) (domain or fragment), the stoichiometry N came to 2.
